Laboratory results reported in patent publication US20040208880.

Experiments:
[1] = biological target: T1, GST fusion containing the C-terminal 19 amino acids of DLC1/PIN
T1 chain: KHFIYFYLGQVAILLFKSG

[2] = biological target: GST-DLC1/PIN with deletion of Ser88
[3] = biological target: GST-DLC1/PIN fusion protein (wild type)

B1: GST-Pak1 fusion protein, wild-type (amino acids 1-545) (protein)
chain: MSNNGLDIQDKPPAPPMRNTSTMIGVGSKDAGTLNHGSKPLPPNPEEKKKKDRFYRSILPGDKTNKKKEKERPEISLPSDFEHTIHVGFDAVTGEFTGMPEQWARLLQTSNITKSEQKKNPQAVLDVLEFYNSKKTSNSQKYMSFTDKSAEDYNSSNALNVKAVSETPAVPPVSEDEDDDDDDATPPPVIAPRPEHTKSVYTRSVIEPLPVTPTRDVATSPISPTENNTTPPDALTRNTEKQKKKPKMSDEEILEKLRSIVSVGDPKKKYTRFEKIGQGASGTVYTAMDVATGQEVAIKQMNLQQQPKKELIINEILVMRENKNPNIVNYLDSYLVGDELWVVMEYLAGGSLTDVVTETCMDEGQIAAVCRECLQALEFLHSNQVIHRDIKSDNILLGMDGSVKLTDFGFCAQITPEQSKRSTMVGTPYWMAPEVVTRKAYGPKVDIWSLGIMAIEMIEGEPPYLNENPLRALYLIATNGTPELQNPEKLSAIFRDFLNRCLDMDVEKRGSAKELLQHQFLKIAKPLSSLTPLIAAAKEATKNNH
For B1, the “in vitro kinase assay with DLC1/PIN deletions” value [1] was “GST fusion containing the C-terminal 19 amino acids of DLC1/PIN was efficiently phosphorylated by Pak1”, the “in vitro kinase assay with DLC1/PIN deletions” value [2] was “Deletion of Ser88 of DLC1/PIN completely abolished the ability of the Pak1 to phosphorylate DLC1/PIN” and the “in vitro kinase assay (phosphorylation of GST-DLC1/PIN by purified Pak1 enzyme)” value [3] was “The Pak1 enzyme efficiently phosphorylated DLC1/PIN”.
